Laboratory results as given in article PMC10397247.
Each block holds one binder with its values, some of them ahead of it.

Key:
Assay in all cases: two-hybrid library CCNG1;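 further: natural log of median RNA to DNA barcode read ratio; higher means stronger binding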
[1] = target: T1, O5-bP
T1 chain: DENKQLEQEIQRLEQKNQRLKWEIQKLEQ

[2] = target: T2, 4H349-bH
T2 chain: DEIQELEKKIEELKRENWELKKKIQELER

[3] = target: T3, 4H3364-bH
T3 chain: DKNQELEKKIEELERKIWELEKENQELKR

[4] = target: T4, 4H56-bH
T4 chain: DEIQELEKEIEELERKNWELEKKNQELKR

[5] = target: T5, 4H949-bH
T5 chain: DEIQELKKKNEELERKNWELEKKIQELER

[6] = target: T6, 4H932-bH
T6 chain: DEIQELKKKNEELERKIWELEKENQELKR

[7] = target: T7, 4H3381-bH
T7 chain: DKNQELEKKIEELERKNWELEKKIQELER

[8] = target: T8, 4H796-bH
T8 chain: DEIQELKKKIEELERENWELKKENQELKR

[9] = target: T9, 4H730-bH
T9 chain: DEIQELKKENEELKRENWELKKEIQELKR

[10] = target: T10, O16-bN
T10 chain: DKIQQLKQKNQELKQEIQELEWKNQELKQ

[11] = target: T11, 4H754-bA
T11 chain: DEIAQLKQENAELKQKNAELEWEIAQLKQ

[12] = target: T12, 4H918-bA
T12 chain: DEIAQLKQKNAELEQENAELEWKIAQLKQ

[13] = target: T13, 4H687-bA
T13 chain: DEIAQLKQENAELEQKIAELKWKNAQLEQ

[14] = target: T14, 4H908-bA
T14 chain: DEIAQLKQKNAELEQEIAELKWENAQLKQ

[15] = target: T15, 4H717-bA
T15 chain: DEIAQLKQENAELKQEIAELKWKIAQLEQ

[16] = target: T16, 4H72-bA
T16 chain: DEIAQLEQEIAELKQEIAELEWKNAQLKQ

[17] = target: T17, 4H883-bA
T17 chain: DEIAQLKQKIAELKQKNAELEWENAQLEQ

[18] = target: T18, 4H338-bA
T18 chain: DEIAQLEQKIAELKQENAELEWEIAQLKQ

[19] = target: T19, 4H4001-bA
T19 chain: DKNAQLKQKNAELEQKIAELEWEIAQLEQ

[20] = target: T20, 4H967-bA
T20 chain: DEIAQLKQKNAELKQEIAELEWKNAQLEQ

[21] = target: T21, 4H3427-bA
T21 chain: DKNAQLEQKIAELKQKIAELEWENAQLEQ

[22] = target: T22, 4H3782-bA
T22 chain: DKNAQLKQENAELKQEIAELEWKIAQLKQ

[23] = target: T23, 4H953-bA
T23 chain: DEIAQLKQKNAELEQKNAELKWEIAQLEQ

[24] = target: T24, 4H797-bA
T24 chain: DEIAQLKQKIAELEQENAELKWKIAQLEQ

[25] = target: T25, 4H607-bA
T25 chain: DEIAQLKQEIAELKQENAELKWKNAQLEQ

[26] = target: T26, 4H3855-bA
T26 chain: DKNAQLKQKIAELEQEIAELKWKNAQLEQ

[27] = target: T27, P9A-bA
T27 chain: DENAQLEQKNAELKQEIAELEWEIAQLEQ

[28] = target: T28, 4H3354-bA
T28 chain: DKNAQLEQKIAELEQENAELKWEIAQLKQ

[29] = target: T29, 4H568-bA
T29 chain: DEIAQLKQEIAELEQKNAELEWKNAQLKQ

[30] = target: T30, 4H454-bA
T30 chain: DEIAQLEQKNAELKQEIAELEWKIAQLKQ

[31] = target: T31, 4H3974-bH
T31 chain: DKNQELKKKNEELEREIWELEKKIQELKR

[32] = target: T32, 4H584-bH
T32 chain: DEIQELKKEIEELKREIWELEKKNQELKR

[33] = target: T33, 4H3638-bH
T33 chain: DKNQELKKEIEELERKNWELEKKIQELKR

[34] = target: T34, 4H850-bH
T34 chain: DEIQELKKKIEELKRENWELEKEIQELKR

[35] = target: T35, 4H953-bH
T35 chain: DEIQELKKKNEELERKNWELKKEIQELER

[36] = target: T36, 4H619-bH
T36 chain: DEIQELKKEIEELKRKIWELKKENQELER

[37] = target: T37, 4H3817-bH
T37 chain: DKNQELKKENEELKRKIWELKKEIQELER

[38] = target: T38, 4H570-bH
T38 chain: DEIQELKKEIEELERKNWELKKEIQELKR

[39] = target: T39, 4H906-bH
T39 chain: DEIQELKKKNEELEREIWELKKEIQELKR

[40] = target: T40, 4H3631-bH
T40 chain: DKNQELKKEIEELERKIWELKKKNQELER

[41] = target: T41, 4H72-bH
T41 chain: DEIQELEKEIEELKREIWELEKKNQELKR

[42] = target: T42, 4H4001-bH
T42 chain: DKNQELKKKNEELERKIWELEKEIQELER

[43] = target: T43, 4H918-bH
T43 chain: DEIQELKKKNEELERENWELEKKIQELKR

[44] = target: T44, 4H370-bH
T44 chain: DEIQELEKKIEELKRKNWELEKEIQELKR

[45] = target: T45, 4H3782-bH
T45 chain: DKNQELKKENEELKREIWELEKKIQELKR

[46] = target: T46, 4H687-bH
T46 chain: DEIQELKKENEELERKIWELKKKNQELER

[47] = target: T47, 4H331-bH
T47 chain: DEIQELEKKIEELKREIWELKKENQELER

[48] = target: T48, 4H607-bH
T48 chain: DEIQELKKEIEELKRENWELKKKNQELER

[49] = target: T49, 4H3189-bH
T49 chain: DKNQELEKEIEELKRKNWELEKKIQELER

[50] = target: T50, 4H462-bH
T50 chain: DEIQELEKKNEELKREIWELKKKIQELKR

[51] = target: T51, 4H568-bH
T51 chain: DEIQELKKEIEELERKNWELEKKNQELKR

[52] = target: T52, 4H797-bH
T52 chain: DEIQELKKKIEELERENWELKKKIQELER

[53] = target: T53, 4H3843-bH
T53 chain: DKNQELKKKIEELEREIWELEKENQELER

[54] = target: T54, 4H883-bH
T54 chain: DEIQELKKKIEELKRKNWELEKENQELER

[55] = target: T55, 4H3606-bH
T55 chain: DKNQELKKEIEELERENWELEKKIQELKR

[56] = target: T56, 4H683-bA
T56 chain: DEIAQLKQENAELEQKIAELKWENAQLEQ

[57] = target: T57, 4H3414-bH
T57 chain: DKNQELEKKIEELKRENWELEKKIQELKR

interaction score [1]: 0.546 | interaction score [2]: -0.118 | interaction score [3]: 1.55 | interaction score [4]: -0.464 | interaction score [5]: 0.153 | interaction score [6]: -0.252 | interaction score [7]: 0.55 | interaction score [8]: -0.523 | interaction score [9]: -0.811 | interaction score [10]: 0.622
B1: 4H3364-bH (peptide)
chain: DKNQELEKKIEELERKIWELEKENQELKR

interaction score [11]: -0.511 | interaction score [12]: -0.0912 | interaction score [13]: 0.42 | interaction score [14]: -1.17 | interaction score [15]: -0.712 | interaction score [16]: -0.822 | interaction score [17]: -0.0506 | interaction score [18]: 0.149 | interaction score [19]: -0.362 | interaction score [20]: -0.407 | interaction score [21]: -0.0236 | interaction score [22]: -0.851 | interaction score [23]: -0.675 | interaction score [24]: -1.14 | interaction score [25]: -0.0475 | interaction score [26]: -0.492 | interaction score [27]: -1.59 | interaction score [28]: 1.66 | interaction score [29]: -1.07 | interaction score [30]: -1.24
B2: 4H3354-bA (peptide)
chain: DKNAQLEQKIAELEQENAELKWEIAQLKQ

interaction score [31]: 0.292 | interaction score [32]: -0.0526 | interaction score [33]: 0.578 | interaction score [34]: -1.94 | interaction score [35]: 0.206 | interaction score [36]: 0.647 | interaction score [37]: 0.637 | interaction score [38]: -1.5 | interaction score [39]: -1.74 | interaction score [40]: 1.13
B3: 4H3631-bH (peptide)
chain: DKNQELKKEIEELERKIWELKKKNQELER

interaction score [41]: -0.107 | interaction score [42]: -0.0803 | interaction score [43]: -0.173 | interaction score [44]: -0.165 | interaction score [45]: -0.496 | interaction score [46]: -0.776 | interaction score [47]: -0.227 | interaction score [48]: -2.19 | interaction score [49]: 0.907 | interaction score [50]: -0.167 | interaction score [51]: -0.408 | interaction score [52]: -0.148 | interaction score [35]: 0.375 | interaction score [53]: -0.157 | interaction score [54]: -0.365 | interaction score [55]: -0.801
B4: 4H3189-bH (peptide)
chain: DKNQELEKEIEELKRKNWELEKKIQELER

interaction score [56]: 0.0371 | interaction score [31]: 0.33 | interaction score [32]: -0.695 | interaction score [33]: -1.45 | interaction score [57]: 0.938 | interaction score [34]: 0.00973 | interaction score [36]: 0.721 | interaction score [37]: 0.48 | interaction score [38]: 0.846 | interaction score [39]: -0.25 | interaction score [40]: 0.689
B5: 4H3414-bH (peptide)
chain: DKNQELEKKIEELKRENWELEKKIQELKR
